Laboratory results: paper PMC3968367

Key:
His28 = His28 (UniProt position 50, AFGRAHGKCMN); details: free toxin (inferred); cited from earlier work
Shaker IR (Drosophila) [1] = target: Shaker IR (Drosophila) (UniProt P08510)
rKv1.2 (rat) [2] = target: rKv1.2 (rat) (UniProt P63142)
rKv1.3 (rat) [3] = target: rKv1.3 (rat) (UniProt P15384)
Shaker IR (Drosophila) [4] = target: Shaker IR (Drosophila) (UniProt P08510); remark: listed apart in the source
rKv1.1 (rat) = rKv1.1 (rat) (UniProt P10499)
rKv1.6 (rat) = rKv1.6 (rat) (UniProt P17659)
rKv1.2 (rat) [5] = target: rKv1.2 (rat) (UniProt P63142); remark: listed apart in the source
rKv1.3 (rat) [6] = target: rKv1.3 (rat) (UniProt P15384); remark: listed apart in the source

Shaker IR (Drosophila), sequence (P08510 whole entry): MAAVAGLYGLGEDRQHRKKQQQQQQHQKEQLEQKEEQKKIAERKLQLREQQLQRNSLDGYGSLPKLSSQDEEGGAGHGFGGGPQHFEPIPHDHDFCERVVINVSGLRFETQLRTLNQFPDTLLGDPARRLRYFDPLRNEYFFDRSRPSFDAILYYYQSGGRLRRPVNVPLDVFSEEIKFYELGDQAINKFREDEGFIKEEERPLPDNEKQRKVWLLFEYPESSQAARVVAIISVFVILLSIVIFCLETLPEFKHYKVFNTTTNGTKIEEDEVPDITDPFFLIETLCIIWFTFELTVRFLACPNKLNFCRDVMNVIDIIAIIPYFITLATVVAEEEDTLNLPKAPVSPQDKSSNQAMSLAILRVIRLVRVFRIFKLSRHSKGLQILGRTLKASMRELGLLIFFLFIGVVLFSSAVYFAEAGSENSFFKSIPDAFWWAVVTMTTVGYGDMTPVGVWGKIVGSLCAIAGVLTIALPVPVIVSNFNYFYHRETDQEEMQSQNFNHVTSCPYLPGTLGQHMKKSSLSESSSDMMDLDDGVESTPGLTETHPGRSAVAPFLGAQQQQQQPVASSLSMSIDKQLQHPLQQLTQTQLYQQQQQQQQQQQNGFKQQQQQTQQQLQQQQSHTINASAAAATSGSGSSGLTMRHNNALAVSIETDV
rKv1.3 (rat), sequence (P15384 whole entry): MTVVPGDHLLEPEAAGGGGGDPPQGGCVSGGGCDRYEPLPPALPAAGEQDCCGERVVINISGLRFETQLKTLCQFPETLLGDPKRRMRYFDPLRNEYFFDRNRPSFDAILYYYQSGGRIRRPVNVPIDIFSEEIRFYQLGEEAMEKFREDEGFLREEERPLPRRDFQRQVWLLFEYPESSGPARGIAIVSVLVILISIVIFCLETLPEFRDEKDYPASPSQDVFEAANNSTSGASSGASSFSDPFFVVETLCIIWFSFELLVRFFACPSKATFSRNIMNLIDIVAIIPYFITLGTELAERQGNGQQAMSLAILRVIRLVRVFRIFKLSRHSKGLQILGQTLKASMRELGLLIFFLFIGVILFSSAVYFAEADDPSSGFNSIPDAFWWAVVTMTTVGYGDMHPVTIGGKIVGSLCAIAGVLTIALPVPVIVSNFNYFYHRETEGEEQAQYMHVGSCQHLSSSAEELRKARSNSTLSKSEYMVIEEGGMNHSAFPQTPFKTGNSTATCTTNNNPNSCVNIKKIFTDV
rKv1.2 (rat), sequence (P63142 whole entry): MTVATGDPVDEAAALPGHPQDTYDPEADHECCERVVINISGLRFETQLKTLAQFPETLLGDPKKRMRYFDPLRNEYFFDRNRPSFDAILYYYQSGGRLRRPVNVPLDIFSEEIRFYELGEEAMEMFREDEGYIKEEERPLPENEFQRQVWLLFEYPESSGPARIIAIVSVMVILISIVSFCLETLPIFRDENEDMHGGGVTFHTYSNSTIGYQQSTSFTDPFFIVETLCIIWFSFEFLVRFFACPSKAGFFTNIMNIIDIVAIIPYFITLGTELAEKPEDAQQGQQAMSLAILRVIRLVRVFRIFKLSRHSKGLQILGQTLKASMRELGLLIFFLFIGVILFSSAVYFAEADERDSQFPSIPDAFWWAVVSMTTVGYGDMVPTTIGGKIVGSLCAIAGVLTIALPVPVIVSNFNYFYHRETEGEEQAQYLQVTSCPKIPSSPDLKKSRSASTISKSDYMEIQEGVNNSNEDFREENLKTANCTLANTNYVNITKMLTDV
rKv1.6 (rat), sequence (P17659 whole entry): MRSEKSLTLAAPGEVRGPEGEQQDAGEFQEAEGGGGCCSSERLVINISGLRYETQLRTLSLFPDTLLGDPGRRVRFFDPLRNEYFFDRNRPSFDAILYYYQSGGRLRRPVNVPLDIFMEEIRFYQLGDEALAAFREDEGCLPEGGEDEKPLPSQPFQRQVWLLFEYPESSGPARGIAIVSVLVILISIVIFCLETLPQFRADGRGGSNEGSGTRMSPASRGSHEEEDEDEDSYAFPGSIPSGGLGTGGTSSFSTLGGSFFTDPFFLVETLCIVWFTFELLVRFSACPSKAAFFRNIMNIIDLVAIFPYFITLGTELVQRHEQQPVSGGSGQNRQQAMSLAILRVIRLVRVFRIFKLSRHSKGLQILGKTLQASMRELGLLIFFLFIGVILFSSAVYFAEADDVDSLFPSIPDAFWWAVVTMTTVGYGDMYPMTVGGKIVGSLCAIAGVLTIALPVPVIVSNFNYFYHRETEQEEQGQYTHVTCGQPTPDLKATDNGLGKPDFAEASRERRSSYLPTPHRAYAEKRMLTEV
rKv1.1 (rat), sequence (P10499 whole entry): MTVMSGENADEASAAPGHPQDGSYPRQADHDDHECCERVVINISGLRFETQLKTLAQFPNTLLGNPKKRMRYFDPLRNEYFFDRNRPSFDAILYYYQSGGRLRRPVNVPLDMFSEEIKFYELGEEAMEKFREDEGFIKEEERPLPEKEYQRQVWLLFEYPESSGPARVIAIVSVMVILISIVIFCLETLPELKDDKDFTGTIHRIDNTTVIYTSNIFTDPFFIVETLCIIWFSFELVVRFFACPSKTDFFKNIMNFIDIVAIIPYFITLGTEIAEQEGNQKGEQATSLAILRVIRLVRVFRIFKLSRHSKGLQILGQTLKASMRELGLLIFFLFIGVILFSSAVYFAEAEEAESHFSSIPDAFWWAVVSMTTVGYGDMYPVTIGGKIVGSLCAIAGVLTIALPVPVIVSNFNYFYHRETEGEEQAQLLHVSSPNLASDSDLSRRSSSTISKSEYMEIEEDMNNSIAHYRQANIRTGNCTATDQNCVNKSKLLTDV

## Ts6 (alpha-KTx12.1, TsTX-IV, butantoxin) (Tityus serrulatus)
His28
  pKa: 5.2

## Ts6 (from UniProt P59936 23-62) (peptide)
Shaker IR (Drosophila) [1]
  blocking effect on the K+ current at 1 µM Ts6, two-microelectrode voltage clamp on Xenopus oocytes: 79%
rKv1.2 (rat) [2]
  blocking effect on the K+ current at 1 µM Ts6, two-microelectrode voltage clamp on Xenopus oocytes: 86%
rKv1.3 (rat) [3]
  blocking effect on the K+ current at 1 µM Ts6, two-microelectrode voltage clamp on Xenopus oocytes: 98%

## Ts7 (from UniProt P46114 23-59) (peptide)
Shaker IR (Drosophila) [4]
  blocking effect on the K+ current at 1 µM Ts7, two-microelectrode voltage clamp on Xenopus oocytes: 97%
rKv1.1 (rat)
  blocking effect on the K+ current at 1 µM Ts7, two-microelectrode voltage clamp on Xenopus oocytes: 85%
rKv1.6 (rat)
  blocking effect on the K+ current at 1 µM Ts7, two-microelectrode voltage clamp on Xenopus oocytes: 94%
rKv1.2 (rat) [5]
  blocking effect on the K+ current at 1 µM Ts7, two-microelectrode voltage clamp on Xenopus oocytes: 91%
rKv1.3 (rat) [6]
  blocking effect on the K+ current at 1 µM Ts7, two-microelectrode voltage clamp on Xenopus oocytes: 89%
